Assay results as given in the supplement of paper PMC9170038.

Test system: MS2 coat protein
Assay: apparent KD of MS2 coat protein; designed switch direction (-1 OFF switch, 1 ON switch): 1; higher = weaker reporter binding
How it was run: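 The buffer was Tris-HCl pH 7.5 with KCl, MgCl2, BSA, DTT, tRNA and Tween-20. In it, SNAP-549-labelled MS2 coat protein was titrated in doubling steps from 0.7 or 1.5 nM to 3 µM over chip-bound RNA switches transcribed by stalled E. coli RNA polymerase on Illumina chips. Apparent KD is the per-design median over clusters of curve fits to normalised fluorescence.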

[1] = input ligand: microRNA oligo, concentration not stated
[2] = Eterna round: R95, input ligand: FMN 200 uM
[3] = Eterna round: R95, input ligand: microRNA oligo, concentration not stated
[4] = Eterna round: R95, input ligand: none

UGUUGUAAUACAGGAUAUAUAUUAUUUUUAUUUAUAGAAGGGUAAUCACAUGAGGAUCACCCAUGUAUAUACGAGGAAGAAGAG [JMF's solution 3] (Eterna round: R96, puzzle: Same State NG 1)
apparent KD of MS2 coat protein [1]: 139 nM

UGUUGUAUUACAGGAUAUCUAGUAUUUUUAAUUAGAGAAGGGUAUUCACAUGAGGAUCACCCAUGUAUAUACGAGGAAGUUGUG [JMF's solution 48] (Eterna round: R96, puzzle: Same State NG 1)
apparent KD of MS2 coat protein [1]: 34 nM

UGUUGUAUUACAGGAUAUCUAGUAUUUUUGUUUAGAGAAGGGUAUUCACAUGAGGAUCACCCAUGUAUAUACGAGGAAGUUGUG [JMF's solution 47] (Eterna round: R96, puzzle: Same State NG 1)
apparent KD of MS2 coat protein [1]: 42.3 nM

UGUUGUAUUACAGGAUAUCUAUGAUUUUUAUCUAGAGAAGGGUAUUCACAUGAGGAUCACCCAUGUAUAUACGAGGAAGUUGUG [JMF's solution 69] (Eterna round: R96, puzzle: Same State NG 1)
apparent KD of MS2 coat protein [1]: 25.1 nM

UGUUGUAUUACAGGAUAUCUAUUAGUGUUAUUUAGAGAAGGGUAUUCACAUGAGGAUCACCCAUGUAUAUACGAGGAAGUUGUG [JMF's solution 90] (Eterna round: R96, puzzle: Same State NG 1)
apparent KD of MS2 coat protein (input ligand: FMN 200 uM): 65.1 nM
apparent KD of MS2 coat protein [1]: 37.4 nM
apparent KD of MS2 coat protein (input ligand: none): 57.4 nM

UGUUGUAUUACAGGAUAUCUAUUAUUUUUUUUUAGAGAAGGGUAUUCACAUGAGGAUCACCCAUGUAUAUACGAGGAAGUUGUG [JMF's solution 23] (Eterna round: R96, puzzle: Same State NG 1)
apparent KD of MS2 coat protein [1]: 45.5 nM

UGUUGUAUUACAGGAUAUCUGUUAUUUUUAUUUAGAGAAGGGUAUUCACAUGAGGAUCACCCAUGUAUAUACGAGGAAGUUGUG [JMF's solution 7] (Eterna round: R96, puzzle: Same State NG 1)
apparent KD of MS2 coat protein [1]: 40.8 nM

UGUUGUUAAUUAGGAUAUGGUCACAUGAGGAUCACCCAUGUAAUGUCGAUGCUAUGUGGAUUUGAUCAGAAGGAAUGGCUAACA [SameState NG2 #97] (Eterna round: R96, puzzle: Same State NG 2)
apparent KD of MS2 coat protein (input ligand: FMN 200 uM): 105 nM
apparent KD of MS2 coat protein [1]: 242 nM
apparent KD of MS2 coat protein (input ligand: none): 341 nM

UUAAGCCGCGGGCAGGAUAUGUAUUAAAAUACAUGAGGAUCACCCAUGUGCAGGUGUAACACCUGACAGAAGGGCCAAUCGCGGC [Soteed - 5] (puzzle: Same State 2)
apparent KD of MS2 coat protein [2]: 21.2 nM
apparent KD of MS2 coat protein [3]: 116 nM
apparent KD of MS2 coat protein [4]: 229 nM

UUAAUGAAGUAAGGAUAUACAUGAGGAAUUCUCGUAGAAGGUACUAUACAUGAGGAUCACCCAUGUGCCGGUCAGAAGACUGGA [Mat - Same State NG 1 - JL mod - D11] (Eterna round: R96, puzzle: Same State NG 1)
apparent KD of MS2 coat protein (input ligand: FMN 200 uM): 454 nM
apparent KD of MS2 coat protein [1]: 302 nM
apparent KD of MS2 coat protein (input ligand: none): 415 nM

UUAAUUUAUUGAGGAUAUUAUGUCGACUGAGUUGACAUGAGGAUCACCCAUGUGAGAAGUGGUAUUAAGAAGGCAAUAUUCAUA [JR_SSNG2_Sub087] (Eterna round: R96, puzzle: Same State NG 2)
apparent KD of MS2 coat protein (input ligand: FMN 200 uM): 39.8 nM
apparent KD of MS2 coat protein [1]: 118 nM
apparent KD of MS2 coat protein (input ligand: none): 115 nM

UUACUCAUGUAAGGAUAUGCAGCCGAAACGGCUGCAGAAGGUACUAUAAUACAUGAGGAUCACCCAUGUAAAAUAAAUAAAGUU [Mat - Same State NG 1 - JL mod - D97] (Eterna round: R96, puzzle: Same State NG 1)
apparent KD of MS2 coat protein (input ligand: FMN 200 uM): 29.1 nM
apparent KD of MS2 coat protein [1]: 32 nM
apparent KD of MS2 coat protein (input ligand: none): 35.9 nM

UUACUCAUGUAAGGAUAUGCAGCCGUUUCGGCUGCAGAAGGUACUAUAAUACAUGAGGAUCACCCAUGUCUCUAUUAUUUAGUG [salish99_SSNG1_r04_922] (Eterna round: R96, puzzle: Same State NG 1)
apparent KD of MS2 coat protein [1]: 39.9 nM

UUACUCAUGUAAGGAUAUGCAGCCGUUUCGGCUGCAGAAGGUACUAUAAUACAUGAGGAUCACCCAUGUCUUUUUAAUUUAGAC [JL SSNG1 1.29] (Eterna round: R96, puzzle: Same State NG 1)
apparent KD of MS2 coat protein (input ligand: FMN 200 uM): 56.2 nM
apparent KD of MS2 coat protein [1]: 30.7 nM
apparent KD of MS2 coat protein (input ligand: none): 47.8 nM

UUAUAACAUGAGGAUCACCCAUGUCAUCUAAGUCGAGGAUAUGGGCAAAUAAUAUAAGAACCAGAAGGCGAAUAUU [Mat - Same State 1 - Mod of UCT - D46] (puzzle: Same State 1)
apparent KD of MS2 coat protein [2]: 106 nM
apparent KD of MS2 coat protein [3]: 147 nM
apparent KD of MS2 coat protein [4]: 232 nM

UUAUCCUUUUUUUACAUGAGGAUCACCCAUGUUUUUCUUACGUAGGAUAUCGUUGUUUUUUUUUACGAGAAGGACGUAGUAUGU [JR_SSND3_Sub062] (Eterna round: R96, puzzle: Same State NG 3)
apparent KD of MS2 coat protein (input ligand: FMN 200 uM): 35.8 nM
apparent KD of MS2 coat protein [1]: 30.4 nM
apparent KD of MS2 coat protein (input ligand: none): 36.5 nM

UUAUCGCUUGGAGGAUAUCCAACUAUACUAAUUGGAGAAGGCCAAGCUACAGAGCUAAGCUUGGAAGUCACUUCGAAUCAACAC [pwkr ssNG1 F9.3] (Eterna round: R96, puzzle: Same State NG 1)
apparent KD of MS2 coat protein (input ligand: FMN 200 uM): 33.2 nM
apparent KD of MS2 coat protein [1]: 5.18 nM
apparent KD of MS2 coat protein (input ligand: none): 48.8 nM

UUAUCUCAGACAUGAGGAUCACCCAUGUGGUUAUGACUUAGACAGGAUAUAGUAGUAUCGAAAUACUAGAAGGGUCAUUUUAUU [JR_SSNG3_Sub021] (Eterna round: R96, puzzle: Same State NG 3)
apparent KD of MS2 coat protein (input ligand: FMN 200 uM): 73.4 nM
apparent KD of MS2 coat protein [1]: 97.5 nM
apparent KD of MS2 coat protein (input ligand: none): 143 nM
